Source: article PMC5595889

Molecular target: GST-tagged importin α7 lacking the IBB (human)
Assay: pull-down

influenza A virus (H1N1 strain A/WSN/33) monomeric nucleoprotein (from UniProt P15682 1-498) (natural protein)
quantity recovered relative to importin α1: 2 fold
